According to the DeepSol protein solubility set:

Test: soluble on expression in E. coli; label from the status in PepcDB or PDB records
In the case of “MGHHHHHHSHMAYNKEEKIKSLNRMQYEVTQNNGTEPPFQNEYWDHKEEGLYVDIVSGKPLFTSKDKFDSQCGWPSFTKPIEEEVEEKLDTSHGMIRTEVRSRTADSHLGHVFNDGPGPNGLRYCINSAALRFVPKHKLKEEGYESYLHLFNK”, the “soluble on expression in E. coli” value is reported as “soluble”.
With “MSLNIAMTGATGYIGKHLSNYLTEKGGHRIIPLGRAMFREGMSGLLVQTLTHCDVIINLAGAPINQRWTPEHKQELFNSRITVTHRIIRALNAVKTKPKLMISASAVGYYPSLVESDEYTQTRGDGFLSDLCYAWEKEAKRCPQPTRLVITRFGVVLSPDGGAMQQMLRPLRATKVAAVIGPGTQPFPWIDIRDLCCAMAFFIENEELRGVFNLVAPQAVSQSTFTRAMGKAYHAWTTEGHHHHHH” the “soluble on expression in E. coli” value was “not soluble”.
In the case of “MSNTLNHTSSRQIVRHYTHSQKRCKHLMQYFVSANGLFELKVKIYAFLFSMILEGKCRSVSIIADISCFFLFHFHAIRNAFYSIHPTYRAEGENERLTLLLIAQGYALSL”, the “soluble on expression in E. coli” value is reported as “not soluble”.
With “MGSDKIHHHHHHMRLILSQCLANLSVRFLMNRNSYNKIAHLWNVARNGFFGREREYLDAILSVAPIGSTILDLGCGTGRPMAEYIVSRGRCVLGVDQSEEMLRLARQKLPHEQWVLSSIESYEPVEGYHGALLWDSLFHIRRTEHELIVSKVVRGLPSGGRLMLTVGGSAHPEFTDFMYGEEFYYDSNTPQETETFLQRLSCRMVIGEYMNLPDGGRDKGRYAIVAEKI” the “soluble on expression in E. coli” value was “not soluble”.
In the case of “MGSDKIHHHHHHMLTYDLTKTDGPLYKCLYECIKNDISQGKLSSGEKMPSKRTLAKNLGVSTITVENAYDQLIGEGYMFARPKKGYFIADVSDIRVIKAPVQKELSIKLPPEQDESIFDFSSNRTDSGNFPFSIWAKLMRETISLREQELLSVSPCGGVRELREAIASHLSSFRGMNVDPDQIIVGAGTEYLYGLLVKLLGTDKVYCVEDPGYKKISQIYECNNAKCLPVQMDEQGISVELIKKANAQIAHISPTHHFPTGITMPVNRRYELLAWANESSDRYIIEDDYDSEFRMNGHPIPPILSIDACEKVIYINTFSKSLTSTIRISYMVLPEHLANEFYRRLSFYSCTVSTFEQYTLARFISEGYFEKHINRMRLHYGRKRQSVLSSIKGCFTEKECRVIENDSGLHFIIQFDTNLPDKTVEERLLKKGIKLQAITHFNLIKPKEDRHQFIINYSNIDADRIMDELLIIKDTIL”, the “soluble on expression in E. coli” value is reported as “not soluble”.
For “SKSRRWVFALRHGERVDLTYGPWVPHCFENDTYVRKDLNLPLKLAHRAGGKGGYVKDTPLTRLGWFQAQLVGEGMRMAGVSIKHVYASPALRCVETAQGFLDGLRADPSVKIKVEPGLFEFKNWHMPKGIDFMTPIELCKAGLNVDMTYKPYVEMDASAETMDEFFKRGEVAMQAAVNDTEKDGGNVIFIGHAITLDQMVGALHRLRDDMEDVQPYEIGRNLLKVPYCALGAMRGKPWDVVSPPCPPSINSSSGRFDWRILIK”, the “soluble on expression in E. coli” value was “soluble”.
With “DTILCFGDCRPLHKEAKRWAKSKGIRFLAFEEGYLRPQFITVEEGGVNAYSSLPRDPDFYRKLPDMPAPHVENLKPSTMKRIGHAMWYYLMGWHYRHEFPRYRHHKSFSPWYEARCWVRAYWRKQLYKVTQRKVLPRLMNELDQRYYLAVLQVYNDSQIRNHSNYNDVRDYINEVMYSFSRKAPKESYLVIKHHPMDRGHRLYRPLIKRLSKEYGLDERVIYVHDLPMPELLRHAKAVVTINSTAGISALIHNKPLKVMGNALYDIKGLTYQGHLHQFWQADFKPDMKLFKKFRGYLLVKTQVNGGYY” the “soluble on expression in E. coli” value was “not soluble”.
With “GSSGSSGTRTYDREGFKKRAACLCFRSEQEDEVLLVSSSRYPDQWIVPGGGMEPEEEPGGAAVREVYEEAGVKGKLGRLLGIFENQDRKHRTYVYVLTVTEILEDWEDSVNIGRKREWFKVEDAIKVLQCHKPVHAEYLEKLKLG” the “soluble on expression in E. coli” value was “soluble”.
With “MTTKDEVKTLWKLCFNDSDEFTDLYFKMRYKDEVNRVIREDGKIISALQMIPYPMTFCDEVISTSYISGACTHPDYRKHGAMKRLLKETHRCMYEDGVLLASLIPAEEWLFGYYARSGYAPVFGYAVEQVRVDRLCPAPGCRIEVCEFPGVEHYHYFDSRMHGRRSCIQHPKEDFLVIMADLRLGNGKLLVAWEADKIVGMAFTVMGDDTLYIKELLADTDAVQDTLLYEAAHIYKVQRMDYFIPSSADTLFLGMARVIRAEELLKVFAHKYPASELYIHIEGDEAIQENNGYYTVRDGFCFRERVPEKKYHTYTLDGFTRLLLEAEHPYMSLMLN” the “soluble on expression in E. coli” value was “soluble”.
With “MDTIDLGNNESLVYGVFPNQDGTFTAMTYTKSKTFKTENGARRWLERNSGE” the “soluble on expression in E. coli” value was “soluble”.
With “MGSDKIHHHHHHLNGHGYHVTGTKTTQDGVEAARMSGIECYQLVLTPELECDADELSALLQVDVLIVTLPASRTAEGGEGYAQAVQQLVNMARVFHVPRIIFTSSTSVYGDGSGTVRETSPLQPTTVAGKTLVSLEQWLQHLPDISVDILRLAGLVGGDRHPGRFLAGKTNLPRGNHGVNLVHQEDVLAAILLLLKLPNGGHIYNLCATEHPARQDFYPEQARRLHVSTPQFAPVTDSSQGRIVDGQRICHELGFDYQYPNPSTMPLNAGESR” the “soluble on expression in E. coli” value was “not soluble”.
With “MGHHHHHHSHMDELVHDLASALEQTSEQNKLGELWEEMALSPRQQRRQLRKRRGRKRRSDFTHLAEHTCCYSEASESSLDEATKDCREVAPVTNFSDSDDTMVAKRHPALNAIVKSKQHSWHESDSFTENAPCRPLRRRRKVKRVTSEVAASLQQKLKVSDWSYERGCRFKSAKKQRLSRWKENTPWTSSGHGLCESAENRTFLSKTGRKERMECETDEQKQGSDENMSEW” the “soluble on expression in E. coli” value was “not soluble”.
For “MKKRVHILIMTLMLIVACVGCSGSSDNPPPANSLHSASTIPISAMPSFSTPSPTVEDTENQQSKTVNYLINSMTLEEKIGQIFIVAFRKGKSSRPLKVLDNSTKLKIQNFNPGGIILFSENIDTIPQTQKLIRDMQEASKIPMFIAVDEEGGRIARIGNNPKMHSTKIPSAQTIGLADDPELAYEAGRILGAELSALGFNMNFAPVADVNTNPDNPVIGDRSFGSDPYKVGLMVQAMSKGMQEQNVCTVLKHFPGHGDTSYDSHLGQVVINHDIERLRQIELTPFKMGIKAGADGVMTAHIIMPNITGSNLPATLSEEILSGLLRNELKHEKLIITDAMEMKAISNYWSSSKAAVMAFKAGADIILMPESFEEAYNGILKAVKDGEITEERLNQSLQRILALKFERNILANKESSVDPEKVLGRQEHTDIVVKIMQKAEEQNIP”, the “soluble on expression in E. coli” value was “not soluble”.
In the case of “MGSDKIHHHHHHMSRTQEKHNRSVSKDVLVVGGGTSGFVAAIAAARNGASVLLLEQRDHLGGTHSGGMVMMIRSMRHMKAPANMEQKKIMMTGYESSFDDEQVVRSIVQEYINRMLEIGSAWGRKDEATARQMFDPEIAKWVIQDMVAEAGVEVWLNTQATDVIMEGNALKGVVIESLRDRVEVHAGITIDTTGDGDIAAAAGAAFEFGSPEDGKCQPASLYFAVGGVQLDKTIAYMRDHANEFGEEYVKTMVGLKEQNKPITMFPFKEKIREALKNGDYPIPYGVETVNPDTLSYIVRPMFRNGKFRYDVTYHNMDMAYNFDATDRVELTKATLAMRDLANKMAKFYRKYVPGYEDSYLSYTAQSVGIRDSRRIVCDYTLTREDVLAGQVFPDGIGRYGSLMDVHDKSGKKSLSLVEVGGHGWFHVPFRSLLPKGIENLMVAGRCISADYDAQGSVRSQAASMVTGQATGTAAALAVQQKRKLRELDVSALQEVLKAQNQVI”, the “soluble on expression in E. coli” value is reported as “not soluble”.
For “MGSDKIHHHHHHMPQIGYQWLSSKCGVVPVHPFAVQSEIGRARSTSTDGDIRREIYPEPYRPTASLTDNLTFAFRHEGIHLEFLARLYALPSVRKELEAWIAREPTGAYARRACFFYEWLMPAPLDAPGVSKGNYVDALNPEEFVVGASINNTRWRVRDNLPGNRDFCPVIRRVEAVQRAETYDLAAPLAELEADYGIDLILRSAVWLTVKESRASFLIEHEQDNEDRIRRFAAVMESECGQHANPFDAGTLNVLQRGILGQSALRYGIRRSPVYVGHVARYQPVVDYIAPPWQHIEVMLAGLTRFLERTAGRAPLVRAAAASFGFVYAHPMADGNGRISRFLINDILRRDGAVPAPIILPVSATITHSTRDRAAYDKVLERFSRPLMKHYADQYTFGKTEIAEDGVEYNLHFHAYEDALPAWRYPDLTAHVGYLADVIDATLAHEMRTEARFLQANDKARRAIKDFLEAPDNDLDGIIRSVRQNGNSISNNLRKRYPLLDERPELGAQIVEAVAEAFADDKSH”, the “soluble on expression in E. coli” value was “not soluble”.
For “MGSDKIHHHHHHMEITSKTYLSTILGNDLAAGFYPTPLTEGNHLIQLLQMESERAYACFDPCCGEGTILRSFADAVKQVGIQLDTYGVELDANRYNKAKEQLDVVIRSSFESMMISHDYFPLIFLNPPYNTELRTEKKKSEKMEFNFLKRAHHYLQDGGIMVYVIPYDRFARDEISYFLAKNYEEIGLMRFGDENEEFEQFKQCVFIGRKRAATKNDTYFNDRFANFCENMSELDFVREHVNTLAQMVNRKSWTIPTLRNQNKLIFTSRVDYKDAYEGVGKSEGILTLKKRLNRGNGYSLQAEKTAAERAKMPIASGQLGLLLITGVADGLLGEGDTLHAVRGSENVFFETSFEKLETTTKEVVLQKRRAKFIIATPTGEVKELV”, the “soluble on expression in E. coli” value was “not soluble”.
For “MKIGFLGFGKSNRSLLKYLLNHQEAKFFVSEAKTLDGETKKFLEEHSVEYEEGGHTEKLLDCDVVYVSPGIKPDTSMIELLSSRGVKLSTELQFFLDNVDPKKVVGITGTDGKSTATALMYHVLSGRGFKTFLGGNFGTPAVEALEGEYDYYVLEMSSFQLFWSERPYLSNFLVLNISEDHLDWHSSFKEYVDSKLKPAFLQTEGDLFVYNKHIERLRNLEGVRSRKIPFWTDENFATEKELIVRGKKYTLPGNYPYQMRENILAVSVLYMEMFNELESFLELLRDFKPLPHRMEYLGQIDGRHFYNDSKATSTHAVLGALSNFDKVVLIMCGIGKKENYSLFVEKASPKLKHLIMFGEISKELAPFVGKIPHSIVENMEEAFEKAMEVSEKGDVILLSPGGASFDMYENYAKRGEHFREIFKRHGGDEV”, the “soluble on expression in E. coli” value was “soluble”.
For “MGSDKIHHHHHHMLERAVTYKNNGQINIILNGQKQVLTNAEAEAEYQATLQKNEAKHGILKEIEKEMSALVGMEEMKRNIKEIYAWIFVNQKRAEQGLKVGKQALHMMFKGNPGTGKTTVARLIGKLFFEMNVLSKGHLIEAERADLVGEYIGHTAQKTRDLIKKSLGGIWFIDEAYSLARGGEKDFGKEAIDTLVKHMEDKQHEFILILAGYSREMDHFLSLNPGLQSRFPISIDFPDYSVTQLMEIAKRMIDEREYQLSQEAEWKLKDYLMTVKSTTSPIKFSNGRFVRNVIEKSIRAQAMRLLMGDQYLKSDLMTIKSQDLSIKEEASGSA”, the “soluble on expression in E. coli” value was “not soluble”.
In the case of “MFHLVDFQVTIAEILIIIMRTFRIAIWNLDVIISSIVRQLFKPLTKKNYSELDDEEPMELDYP”, the “soluble on expression in E. coli” value is reported as “soluble”.
With “MGSDKIHHHHHHMGLTLRQIEVIRAVMIAGTIAGAARLMNVAQPGVSRTMKHIESALGIKLFVKKAGRYVPTDEARDIFAQLQEVHRKVDDLQSSIGQLERGRGVELALGSVPSIANAMMPQAIAGLMRRYPDIRINFDILRIEEAIDYLLLGKGELVAMSYHLTHPSITFEPLSKGHLVCIAAREHPIAGRSRISAREIAEHPLIGIDPRDPYGAIMAGIFEREKLEYRTPIRARFGTTVCALVKRNLGIAVIDAFTVGGMADQGLAVIPISEDTEFQTYVAYRADAALSSYAERLVTTLRRVMDDSTGRSRGGRDA” the “soluble on expression in E. coli” value was “not soluble”.
